Results: the nanobody polyreactivity screen of Harvey et al. (2022)

Assay: yeast display, Sf9 membrane polyspecificity reagent, FACS + sequencing; frameworks hold sequencing errors
Summary of the method: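 Synthetic nanobody libraries on Saccharomyces cerevisiae BJ5465 were galactose-induced for 36–48 hours, stained 1 hour at 4 °C with 10% biotinylated, detergent-solubilized Sf9 membrane reagent and enriched on streptavidin microbeads. FACS then separated cells into low and high (top ~1%) gates by anti-HA (expression) and streptavidin (reagent binding) fluorescence. Genes were colony-PCR amplified, MiSeq 2 × 250 sequenced and CDR-length filtered. A clone's polyreactivity label is that of its gate of origin.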

Sequence | polyreactivity (PSR sort gate)
QVQLVESGGGLVQAGGSLRLSCAASGSIFPDNAMRWYRQAPGKERELVAAITRGGSTYYADSVKGRFTISRDNAKNTVYLQMNSLKPEDTAVYYCAARRRYLWSYDYWGQGTQVTVSS | high polyreactivity
QVQLVESGGGLVQAGGRLRLSCTASGIIFGTYAMGWYRQAPGKERELVAAISSSGVSTYYADSVKGRFTISRDNAKNTVYLQMNSLKPEDTAVYYCAAPLHYGYYYWGQGTQVTVSS | high polyreactivity
QVQLVESGGGLVQAGGSLRLSCAASGGTFWYNAMGWYRQAPGKERELVANIRRSGDSTYYADSVKARFTISRDNAKNTVYLQMNSLKPEDTAVYYCAVSYTTYYHRYYYWGQGTQVTVSS | high polyreactivity
QVQLVESGGGLVQAGGSLRLSCAASGTIFLVYAMGWYIQAPGKERELVAAITFSGGDTYADSVKGRFTISRDNAKNTVYLQMNSLKPEDTAVYYCNAPWPYYGSVVGQDFDYWGQGTQVTVSS | low polyreactivity
QVQLVESGGGLVQAGGSLRLSCAASGSIFRYNAMGWYRQAPGKERELVAAISTSGGSTYYADSVKGRFTISRDNAKNTVYLQMNSLKPEDTAVYYCNKLRNSDSRGIVWYGYWGQGTQVTVSS | high polyreactivity
QVQLVESGGGLVQAGGSLRLSCASSGRIFYPNAMGWYRQAPGIERELVAAISSRGGSTYYADSVKGRFTISRDNAKNTVYLQMNSLKPEDTAVYYCNRVYYTIGYDYWGQGTQVSVSS | high polyreactivity
QVQLVESGGGLVQAGGSLRLSCAASGIIFQRNDIGWYREAPGKERELVANIRDGGITYADSVKGRFTISRDNAKNTVYLQMNSLKPDDTAVYYCALEDTSPGYGDQSSNAAYYYWGQGTQVTVSS | low polyreactivity
QVQLVESGGGLVQAGGSLRLSCAASGSNFDDYGMGWYRQAPGKEREFVATITFGGGTYADSVKGRFTISRDNAKNTVYLQMTSLKPEDTAVYYCAKDWWTYRSSRPSDGTPARDDYWGQGTQVTVSS | low polyreactivity
QVQLVESGGGLVQAGGSLRLSCAASGRIFYDNTMGWYRQAPGKERELVAVISWSTGGTYADSVKGRFTISRDNAKNTVYLQMNSLKPEDTAVYYCATPLGYGPDLDYWGQGTQVTVSS | low polyreactivity
QVQLVESGGGLVQAGGSLRLSCAASGLIFGRNAMGWYRQAPGKERELVAAISWSGGSTYYADSVKGRFTISRDNAKNTVYLQMNSLKPEDTAVYYCNRYRYYGSEDDYWGQGTQVTVSS | high polyreactivity
QVQLVESGGGLVQAGGSLRLSCAASGSIFRYNAMGWYRQAPGKETELVAAISASGGRTHYADSVKGRFTISRDNAKNTVYLQMNSLKPEDTAVYYCAAATYRGTSLYGYWGQGTQVTVSS | high polyreactivity
QVQLVESGGGLVQAGGSLRLSCAASGRIFSFNAMGWYRQAPGKERELVATIRTDGTTNYADSVKGRFTISRDNAKNTVYLQMNSLKPEDSAVYYCATDSGWSTYDYWGQGTQVTVSS | high polyreactivity
QVQLVESGGGLVQAGGSLRLSCAASGSTFPYYVMGWYRQAPGKERELVAAISKSGGSTYYADSVKGRFTISRDNEKNTVYLQMNSLKPEDTAVYYCAKSYRSSRRYNYWGQDTQVTVSS | high polyreactivity
QVQLVESGGGLVQAGGSLRLSCAASGFIFYGYAMGWSRQAPGKERELVAAIRYSGTSTYADSVKGRFTISRDNAKNTVYLQMNSLKPEDTAVFYCAKKYLYYGVPSYKYWGQGTQVTVSS | high polyreactivity
QVQLVESGGGLVQAGGSLRLSCAASGFIFYGYAMGWYRQAPGKERELVAGISTGGSTNYADSVKGRITISRDNAKNTVYLQMNSLKPEDTAVYYCAVVDVEEHVGHWGQGTQVTVSS | low polyreactivity
QVQLVESGGGIVQAGGSLRLSCAASGRNSNRYAMGWYRQAPGKEREFVAAISKSGTSTYYADSVKGRFTISRDNAKNTVYLQMNSLKPEDTAVYYGAAKTGVGLRVNSGIGFYYWGQGTQVTVSS | high polyreactivity
QVQLVESGGGLVQAGGSLRLSCAASGFIFGRYTMGWYRQATGKERELVAAISGSDVTTYYADSVKGRFTISRDNAKNTVYLQMNSLKPEDTAVYYCAADSPWAYYEYDYWGQGTHVTVSS | low polyreactivity
QVQLVESGGGLVQAGGSLRLSCAASGFIFGYYAMGWYRQAPGKERELVAAISTRGSTYYADSVKGRFTISRDNAKYTVYLQMNSLKPEDTAVYYCNAGWGYRRDYWGQGTQVTVSS | high polyreactivity
QVQLVESGGGLVQAGGSLRLSCAASGRIFGYYAMGWYRQAPGKERELVAAISYRGSSTYYADSVKGRFTISRDNAKNTVYLQMNSLKPEDTAVYYCAAKGHGRTYDYWGQGTQVTVSS | high polyreactivity
QVQLVDSGGGLVQAGGSLRLSCAASGSIFKRNAMGWYRQAPGKERELVATISSRGGSTYYADSVKGRFTISRDNAKNTVYLQMNSLKPEDTAVYYCSARGYQITGNYYTPTSKYNYWGQGTQVTVSS | high polyreactivity
QVQHVESGGGLVQAGGSLRLSCAASGLIFPRYAMGLYRQAPGKERELVAAINWRGGITYYADSVKGRFTISRDNAKNTVYLQMNSLKPEDTAVYYCAAAVKHVAYHYNYWGQGTQVTVSS | high polyreactivity
QVQLVESGGGLVQAGGSLRLSCAASGFTFNDYAMGWYRQAPGKERELVAAIDWSGGRTYYADSVKGRFTISRDNAKNTVYLQMNSLKPDDTAVYYCAAVLYSRLYWYRLDYWGQGTQVTVSS | low polyreactivity

Sequence | polyreactivity (PSR sort gate)
QVQLVESGGGLVQAGGSLRLSCAASGSIFDVNAMGWYIQAPGKERELVAAISQRGTRTYYADSVKGRFTISRDNAKNTVYLQMNRLKPEDTAVYYCNRGGWRQYDSWGQGTQVTVSS | high polyreactivity
QVQLVESGGGLVQAGGSLRLSCAASGIISGDYAMGWYRQAPGKERELVARITSGDSTNYADSVKGRFTISRDNAKNTVYLQMNSLNPEDTAVYYCAADRVWAYWTYGYWGQGTQVTVSS | low polyreactivity
QVQLVESWGGLVHAGGSLRLSCAASGSTFAGYAMGWYRKATGTERELVATITYSGGSTYYADSVKGRFTISRDNAKNTVYLQMNSLKTEDTAVYYCAKKASYWWGYEYWGQGTQVTVSS | low polyreactivity
QVQLVESGGGLVQAGGSLRLSCAASGSIFKHNDMGWYRQAPGKERELVAAISRSGGATYYAHSVKGRFTISRDNAKNTVYLQMNSLKPEDTAVYYCNAGRRTARYGYWGQGTQVTVSS | high polyreactivity
QVQLVESGGGLVQAGGSLRLSCAASGSIFNRYAMRWYRQAPGKERALVAAISRSGSTYYADSVKGRFTISRDNAKNTVYLQMNSLKPEDTAVYYCNARGTTHHTSYDYWGQGTQVTVSS | low polyreactivity
QVQLVESVGGLVQAGGSLRLSCAASVRTFSSYAMGWYRKPPGKERELVAVITSGSSTHYADSVKGRFTISRDNAKNTVYLQMNSLKPEDTAVYYCAARDIREIDCISYWYDYWGQGTQVTVSS | high polyreactivity
QVQLVESGGGLVQAGGSLRLSCAASGDISYIYAMGWYRQAPGKEREMVADISSSVGNTYYADSVKGRFTISRDNAKNTVYLQMNSLKPEDTAVYYCNADYVQPTESGGTYDYWGQGTQVTVSS | low polyreactivity
QVQLEESGGGLVQAGGSLRLSCAASGFIFPHYTMGWYRQAPGKERELVAAISSSGGSTYYADSVKGRFTISRDNAKKTVYLQMNSLKPEDTAVYYCPGPLPYYGQYDYWGQGTQVTVSS | low polyreactivity
QVQLVESGGGLVQAGGSLRLSCAASGSIFSRNAMGWYRQAPGKERELVAAISWRGGSTYYADSVKGRFTISRDNAKYTVYLQMNSLKPEDTAVYYCGALSYPGKAGMGYWGQGTQVTVSS | high polyreactivity
QVQLVESGGGLVQAGGSLRFSCAASGSTTYRYAMGWYRQAPGKERELVAAISSRGGSTYYADSVKGRFTISRDNAKNTVYLQMNSLKPEDTAVYYCAVKDRYSFRYDYWGQGTQVTVSS | high polyreactivity
QVQLVESGGGLVQAGGSLRLSCAASGLIFWAYAMGWYRQAPGKERELVAGISVSGGSTYYADSVKGRFTISRDNAKNTVYLQMNSLKPEDTAVYYCAARLPRTRYWDDYWGQGTQVTVSS | high polyreactivity
QVQLVESGGGLVQAGGSLRLSCAASGRTFDEYAMGWYRQAPGKERELVDAINSSGNTYYADSVKGRFTISRDNAKNTVYLQMNSLKPEDTAVYYCAVRSYNTIYDDMDYWGQGTQVTVSS | low polyreactivity
QVQLVESGGGLVQAGGSLRLSCAPSGSTFFWYSMGWYRQAPGKERELVARISRRSGSTYYADSVKGRFTISRDNAKNTVYLQMNSLIPEDTAVYYCNARAVGAPGSVRYDYWGQGTQVTVSS | low polyreactivity
QVQLVESGGGLVQAGGSLRLSCAASGSTFLVYAMGWSRQAPGKERELVAAIRGGGSTNYADSVKGRFTISRDNAKNTVYLQMNSLKPEDTGVYYCAAYLLYTPSMDYWGQGTQVTVSS | low polyreactivity
QVQLVESGGGLVQAGGSLRLSCAASGSIFRRYAMGWYRQEPGKEMEFVAAITGSGGRTYYADSVKGRITISRDNAKNTVYLQMNSLKPEDTAVYYCAARRRDRVTYYYWGQGTQVTVSS | high polyreactivity
QVQLVESGGGLVQAGGSLRLSCAASGSIFRWNAMGWYRQAPGKERELVAAISKSGGRRYYADSVKGRFTISRDNAKNTVYLQMNSVKPEDTAVYYCAAGYTTTQYYGPQYDYWGQGTQVTVSS | high polyreactivity
QFQLVESGGGLVQAGGSLRLSCAASGITFQYYAMGWYRQAPGKERDFVAAISWRSGRTYYADSVKGRFTISRDNAKNTVYLQMNSLKPEDTEVYYCAAVVHIQRSTRDYWGQGTQVTVSS | high polyreactivity
QVQLVESGGGLVQAGGSLRLSCAASGSIFDYNTMGWYSQAPGKERELVAAISSGGSTYYADSVKGRFTISRDNAKTTVYLQMKSLKPEDTAVYYCAARRAGWWGFYYWGQGTQVTVSS | high polyreactivity
QVQLVESGGGLVQAGGSLRLSCAASGRTFSHNAMGWYRQAPGKERELVAAISRGGGTNYADSVKGRFTISRDNAKNTVYLQMNSLKPEDTAVYYCAAAGYDSNGRYYYWGQGTQVTVSS | high polyreactivity
QVQLVESGGGLVQPGGSLRLSCAASGSILKSYAMGWYRQAPGKERELVAAITYRDGSTYYAHSVKGRFTISRDNSKNTVYLQMNSLKPVDTAVYYCAAEPSWWNVFYPGYNYWGQGTQVTVSS | high polyreactivity
QVQLVESGGGLVQAGGSLRLSCAASGSTFYNYAMGWYRQAPGKERELVAAITSSGDRTYYADSVKGRFTISRDNAKNTVYLQMNSLKPEDTAVYYCATRRYFRYEYWGQGTQVTVSS | low polyreactivity
